The source of these data is US9567577B2, “Expression vector comprising a polynucleotide encoding a modified glutamine synthetase and a method for preparing a target protein employing the same” (ARES TRADING S.A., priority 2012, dated 2017).

The subject of the assay is CHO K-1 cells. The assay is described as follows: TNFR-Fc expression level by ELISA of culture broth of CHO K-1 cells transfected with the expression vectors. It is filed as cell-based. The note with it: inferred from TNFR-Fc expression under MSX. The procedure: In order to compare the productivity of TNFR-Fc fusion protein between the GS and DHFR gene expression systems, each of the expression vectors constructed in Example 4 was introduced into CHO K-1 cells so as to prepare each transformant.
In detail, CHO K-1 cells were cultured in a DMEM/F12 medium supplemented with 10% FBS, and 3 to 4×10^5 cells/well were inoculated into a 6 well-plate, followed by cultivation overnight. When the cells reached 80 to 90% confluence, each of the expression vectors was introduced thereto.
To achieve this, 4 μg of each of the expression vectors constructed in Example 4 and 250 μl of Opti-MEM were mixed with each other, and separately, 10 μl of Lipofectamine 2000 (Invitrogen) and 250 μl of Opti-MEM were mixed with each other. Then, each mixture was left at room temperature for 5 minutes. Subsequently, the mixtures were mixed with each other, and left at room temperature for 20 minutes.
Thereafter, the culture medium in the 6-well plate was replaced with 2 ml of Opti-MEM I media, and 500 μl of the final mixture was added to each well of the 6-well plate, followed by cultivation at 37° C. for 4 to 6 hours. The medium was replaced with the original culture medium (DMEM/F12 medium supplemented with 10% FBS), followed by further cultivation overnight. […]

B1: modified GS protein: hamster glutamine synthetase (SEQ ID NO. 4) with glycine at position 299 substituted with arginine (protein, listed as Cricetulus longicaudatus)
chain: MATSASSHLNKNIKQMYLCLPQGEKVQAMYIWVDGTGEGLRCKTRTLDCEPKCVEELPEWNFDGSSTFQSEGSNSDMYLSPVAMFRDPFRRDPNKLVFCEVFKYNRKPAETNLRHSCKRIMDMVSNQHPWFGMEQEYTLMGTDGHPFGWPSNGFPGPQGPYYCGVGADKAYGRDIVEAHYRACLYAGVKITGTNAEVMPAQWEFQIGPCEGIRMGDHLWVARFILHRVCEDFGVIATFDPKPIPGNWNGAGCHTNFSTKAMREENGLKHIEEAIEKLSKRHRYHIRAYDPKGGLDNARRLTGFHETSNINDFSAGVANRSASIRIPRTVGQEKKGYFEDRRPSANCDPFAVTEAIVRTCLLNETGDEPFQYKN
With B1, the “sensitivity to GS inhibitors compared with wildtype GS protein” value is “enhanced sensitivity”.
